T1: FcγRIIb extracellular domain with C-terminal His tag (human, UniProt P31994 43-217)
T1 construct: extracellular domain; also called FcgRIIb; 2b
T1 sequence (looked up): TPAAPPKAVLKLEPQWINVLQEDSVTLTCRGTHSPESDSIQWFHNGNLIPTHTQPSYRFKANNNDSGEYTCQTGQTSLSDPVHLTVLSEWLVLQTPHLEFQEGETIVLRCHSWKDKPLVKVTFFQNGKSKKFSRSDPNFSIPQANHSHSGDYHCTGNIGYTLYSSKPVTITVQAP

B1: GpH7-B3 variant L235_15Y/GpL16-k0 (antibody, human IgG1, kappa)
heavy: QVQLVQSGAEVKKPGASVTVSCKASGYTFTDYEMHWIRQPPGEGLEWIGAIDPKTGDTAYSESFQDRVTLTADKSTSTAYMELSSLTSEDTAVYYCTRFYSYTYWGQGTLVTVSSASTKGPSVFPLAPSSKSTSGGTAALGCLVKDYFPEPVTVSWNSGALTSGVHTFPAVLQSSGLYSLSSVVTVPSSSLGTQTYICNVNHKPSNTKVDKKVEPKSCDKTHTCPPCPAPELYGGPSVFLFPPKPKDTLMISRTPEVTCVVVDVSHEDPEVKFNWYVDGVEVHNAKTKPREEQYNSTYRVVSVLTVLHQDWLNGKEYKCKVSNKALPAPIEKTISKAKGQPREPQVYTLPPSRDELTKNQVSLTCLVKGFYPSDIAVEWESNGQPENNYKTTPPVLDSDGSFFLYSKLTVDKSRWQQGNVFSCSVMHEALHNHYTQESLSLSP
light: DIVMTQSPLSLPVTPGEPASISCQASESLVHSNRNTYLHWYLQKPGQSPQLLIYKVSNRFSGVPDRFSGSGSGTDFTLKISRVEAEDVGVYYCSQNTHVPPTFGQGTKVEIERTVAAPSVFIFPPSDEQLKSGTASVVCLLNNFYPREAKVQWKVDNALQSGNSQESVTEQDSKDSTYSLSSTLTLSKADYEKHKVYACEVTHQGLSSPVTKSFNRGEC
notes: also called Ho Ab L235_15Y
B2: GpH7-B3 variant N325_07I/GpL16-k0 (antibody, human IgG1, kappa)
heavy: not shown
light: B1 light
notes: also called Ho Ab N325_07I
B3: GpH7-B3 variant L235_09D/GpL16-k0 (antibody, human IgG1, kappa)
heavy: not shown
light: B1 light
notes: also called Ho Ab L235_09D
B4: GpH7-B3 variant L234_20W/GpL16-k0 (antibody, human IgG1, kappa)
heavy: not shown
light: B1 light
notes: also called Ho Ab L234_20W
B5: GpH7-B3 variant P238_03V/GpL16-k0 (antibody, human IgG1, kappa)
heavy: not shown
light: B1 light
notes: also called Ho Ab P238_03V
B6: GpH7-B3 variant N325_04F/GpL16-k0 (antibody, human IgG1, kappa)
heavy: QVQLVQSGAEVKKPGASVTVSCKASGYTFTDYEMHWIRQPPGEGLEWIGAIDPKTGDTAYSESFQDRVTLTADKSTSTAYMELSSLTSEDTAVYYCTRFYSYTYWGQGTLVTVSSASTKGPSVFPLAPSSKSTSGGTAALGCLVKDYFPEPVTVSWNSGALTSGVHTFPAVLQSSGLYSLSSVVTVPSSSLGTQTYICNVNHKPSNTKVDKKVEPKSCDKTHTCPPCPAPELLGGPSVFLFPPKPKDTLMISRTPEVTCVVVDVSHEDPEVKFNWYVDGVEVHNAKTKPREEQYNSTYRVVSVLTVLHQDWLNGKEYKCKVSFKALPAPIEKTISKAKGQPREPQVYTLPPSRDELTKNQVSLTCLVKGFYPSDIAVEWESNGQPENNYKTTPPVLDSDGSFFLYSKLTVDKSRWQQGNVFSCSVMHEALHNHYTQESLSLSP
light: B1 light
notes: also called Ho Ab N325_04F
B7: GpH7-B3 variant I336_08L/GpL16-k0 (antibody, human IgG1, kappa)
heavy: not shown
light: B1 light
notes: also called Ho Ab I336_08L
B8: GpH7-B3 variant P238_04F/GpL16-k0 (antibody, human IgG1, kappa)
heavy: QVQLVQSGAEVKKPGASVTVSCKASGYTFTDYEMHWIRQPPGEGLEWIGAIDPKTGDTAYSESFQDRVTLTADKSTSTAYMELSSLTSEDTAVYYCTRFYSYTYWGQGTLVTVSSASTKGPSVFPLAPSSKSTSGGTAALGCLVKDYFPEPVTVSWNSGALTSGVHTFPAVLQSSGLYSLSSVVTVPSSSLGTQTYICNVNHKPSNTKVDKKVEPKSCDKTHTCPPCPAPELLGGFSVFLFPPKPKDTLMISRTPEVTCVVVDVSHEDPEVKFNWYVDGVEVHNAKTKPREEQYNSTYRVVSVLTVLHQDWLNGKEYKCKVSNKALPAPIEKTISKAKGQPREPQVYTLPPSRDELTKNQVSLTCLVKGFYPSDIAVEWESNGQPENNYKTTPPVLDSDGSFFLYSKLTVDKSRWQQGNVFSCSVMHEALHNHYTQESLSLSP
light: B1 light
notes: also called Ho Ab P238_04F
B9: GpH7-B3 variant H268_03V/GpL16-k0 (antibody, human IgG1, kappa)
heavy: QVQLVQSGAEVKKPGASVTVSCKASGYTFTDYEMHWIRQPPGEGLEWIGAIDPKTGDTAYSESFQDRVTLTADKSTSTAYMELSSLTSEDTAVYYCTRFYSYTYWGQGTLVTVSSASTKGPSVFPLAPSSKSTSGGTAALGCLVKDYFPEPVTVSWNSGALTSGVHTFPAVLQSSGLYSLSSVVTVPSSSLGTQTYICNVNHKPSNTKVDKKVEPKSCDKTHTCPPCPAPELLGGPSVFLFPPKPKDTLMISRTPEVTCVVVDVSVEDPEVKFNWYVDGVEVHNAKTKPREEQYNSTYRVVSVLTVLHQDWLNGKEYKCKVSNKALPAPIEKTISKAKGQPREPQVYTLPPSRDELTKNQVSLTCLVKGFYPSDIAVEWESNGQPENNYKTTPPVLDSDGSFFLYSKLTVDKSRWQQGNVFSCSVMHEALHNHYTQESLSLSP
light: B1 light
notes: also called Ho Ab H268_03V
B10: GpH7-B3 variant P331_07I/GpL16-k0 (antibody, human IgG1, kappa)
heavy: not shown
light: B1 light
notes: also called Ho Ab P331_07I
B11: GpH7-B3 variant N325_06M/GpL16-k0 (antibody, human IgG1, kappa)
heavy: not shown
light: B1 light
notes: also called Ho Ab N325_06M
B12: GpH7-B3 variant K326_20W/GpL16-k0 (antibody, human IgG1, kappa)
heavy: not shown
light: B1 light
notes: also called Ho Ab K326_20W
B13: GpH7-B3 variant P331_06M/GpL16-k0 (antibody, human IgG1, kappa)
heavy: not shown
light: B1 light
notes: also called Ho Ab P331_06M
B14: GpH7-B3 variant P238_16H/GpL16-k0 (antibody, human IgG1, kappa)
heavy: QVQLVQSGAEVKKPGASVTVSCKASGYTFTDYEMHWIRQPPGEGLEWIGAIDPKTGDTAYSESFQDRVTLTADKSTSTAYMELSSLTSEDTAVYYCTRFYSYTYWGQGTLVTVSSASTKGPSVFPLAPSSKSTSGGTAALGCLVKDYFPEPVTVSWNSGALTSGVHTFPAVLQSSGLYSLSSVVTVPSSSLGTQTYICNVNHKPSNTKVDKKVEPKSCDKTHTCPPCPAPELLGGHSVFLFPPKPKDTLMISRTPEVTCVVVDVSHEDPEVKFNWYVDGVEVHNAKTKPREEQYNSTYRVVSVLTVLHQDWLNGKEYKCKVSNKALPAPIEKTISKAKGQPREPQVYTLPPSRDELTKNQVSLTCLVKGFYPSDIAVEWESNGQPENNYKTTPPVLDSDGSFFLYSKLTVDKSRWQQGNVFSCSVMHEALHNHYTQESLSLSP
light: B1 light
notes: also called Ho Ab P238_16H
B15: GpH7-B3 variant P331_15Y/GpL16-k0 (antibody, human IgG1, kappa)
heavy: not shown
light: B1 light
notes: also called Ho Ab P331_15Y
B16: GpH7-B3 variant G237_18N/GpL16-k0 (antibody, human IgG1, kappa)
heavy: not shown
light: B1 light
notes: also called Ho Ab G237_18N
B17: GpH7-B3 variant L234_09D/GpL16-k0 (antibody, human IgG1, kappa)
heavy: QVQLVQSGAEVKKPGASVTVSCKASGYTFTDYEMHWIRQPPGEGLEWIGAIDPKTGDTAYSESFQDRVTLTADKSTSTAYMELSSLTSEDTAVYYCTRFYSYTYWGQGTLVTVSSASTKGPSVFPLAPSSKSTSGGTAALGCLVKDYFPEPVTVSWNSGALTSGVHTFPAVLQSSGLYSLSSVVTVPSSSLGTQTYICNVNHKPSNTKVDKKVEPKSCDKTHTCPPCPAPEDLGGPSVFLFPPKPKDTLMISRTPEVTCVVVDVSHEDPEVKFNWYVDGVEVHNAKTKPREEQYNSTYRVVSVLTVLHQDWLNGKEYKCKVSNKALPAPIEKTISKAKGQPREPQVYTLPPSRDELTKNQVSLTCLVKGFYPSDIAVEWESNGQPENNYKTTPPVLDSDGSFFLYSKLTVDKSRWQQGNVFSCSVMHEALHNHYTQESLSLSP
light: B1 light
notes: also called Ho Ab L234_09D
B18: GpH7-B3 variant G237_20W/GpL16-k0 (antibody, human IgG1, kappa)
heavy: not shown
light: B1 light
notes: also called Ho Ab G237_20W
B19: GpH7-B3 variant K326_07I/GpL16-k0 (antibody, human IgG1, kappa)
heavy: not shown
light: B1 light
notes: also called Ho Ab K326_07I
B20: GpH7-B3 variant I332_02A/GpL16-k0 (antibody, human IgG1, kappa)
heavy: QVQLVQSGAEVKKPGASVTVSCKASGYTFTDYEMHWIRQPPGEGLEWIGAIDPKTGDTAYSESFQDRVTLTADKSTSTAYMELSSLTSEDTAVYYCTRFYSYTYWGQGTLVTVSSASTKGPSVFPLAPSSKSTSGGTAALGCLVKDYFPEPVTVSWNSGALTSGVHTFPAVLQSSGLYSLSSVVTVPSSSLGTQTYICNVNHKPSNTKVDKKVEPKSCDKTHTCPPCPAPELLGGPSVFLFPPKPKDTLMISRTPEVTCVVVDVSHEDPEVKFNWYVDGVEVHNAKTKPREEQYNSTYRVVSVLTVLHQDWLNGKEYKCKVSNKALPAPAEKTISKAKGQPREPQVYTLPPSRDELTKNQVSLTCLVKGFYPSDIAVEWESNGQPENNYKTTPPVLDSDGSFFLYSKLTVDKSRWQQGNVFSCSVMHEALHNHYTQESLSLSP
light: B1 light
notes: also called Ho Ab I332_02A
B21: GpH7-B3 variant P331_20W/GpL16-k0 (antibody, human IgG1, kappa)
heavy: not shown
light: B1 light
notes: also called Ho Ab P331_20W
B22: GpH7-B3 variant P271_09D/GpL16-k0 (antibody, human IgG1, kappa)
heavy: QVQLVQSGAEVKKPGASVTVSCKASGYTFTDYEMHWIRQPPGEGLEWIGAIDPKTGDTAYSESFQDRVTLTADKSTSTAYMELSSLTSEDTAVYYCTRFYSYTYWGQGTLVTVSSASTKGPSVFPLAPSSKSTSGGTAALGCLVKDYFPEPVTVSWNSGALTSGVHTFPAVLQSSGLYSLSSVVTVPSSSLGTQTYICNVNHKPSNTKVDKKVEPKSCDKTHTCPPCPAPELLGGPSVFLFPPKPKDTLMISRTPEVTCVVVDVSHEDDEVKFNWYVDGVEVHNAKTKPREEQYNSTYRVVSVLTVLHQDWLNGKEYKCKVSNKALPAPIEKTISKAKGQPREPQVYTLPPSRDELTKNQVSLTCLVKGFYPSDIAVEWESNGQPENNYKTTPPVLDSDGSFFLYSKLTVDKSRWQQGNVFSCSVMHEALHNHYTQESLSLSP
light: B1 light
notes: also called Ho Ab P271_09D
B23: GpH7-B3 variant G237_19Q/GpL16-k0 (antibody, human IgG1, kappa)
heavy: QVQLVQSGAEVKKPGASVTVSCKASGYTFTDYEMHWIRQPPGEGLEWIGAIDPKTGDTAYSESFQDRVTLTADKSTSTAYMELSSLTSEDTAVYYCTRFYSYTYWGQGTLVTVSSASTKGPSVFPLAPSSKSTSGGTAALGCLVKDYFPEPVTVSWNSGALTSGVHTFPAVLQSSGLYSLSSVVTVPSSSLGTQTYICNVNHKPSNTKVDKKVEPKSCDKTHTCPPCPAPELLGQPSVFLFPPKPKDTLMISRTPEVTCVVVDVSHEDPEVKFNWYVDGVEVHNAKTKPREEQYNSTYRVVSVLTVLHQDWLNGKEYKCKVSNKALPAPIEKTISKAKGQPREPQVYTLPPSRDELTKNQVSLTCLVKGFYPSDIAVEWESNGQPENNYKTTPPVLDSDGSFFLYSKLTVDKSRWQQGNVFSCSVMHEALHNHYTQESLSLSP
light: B1 light
notes: also called Ho Ab G237_19Q
B24: GpH7-B3 variant N325_03V/GpL16-k0 (antibody, human IgG1, kappa)
heavy: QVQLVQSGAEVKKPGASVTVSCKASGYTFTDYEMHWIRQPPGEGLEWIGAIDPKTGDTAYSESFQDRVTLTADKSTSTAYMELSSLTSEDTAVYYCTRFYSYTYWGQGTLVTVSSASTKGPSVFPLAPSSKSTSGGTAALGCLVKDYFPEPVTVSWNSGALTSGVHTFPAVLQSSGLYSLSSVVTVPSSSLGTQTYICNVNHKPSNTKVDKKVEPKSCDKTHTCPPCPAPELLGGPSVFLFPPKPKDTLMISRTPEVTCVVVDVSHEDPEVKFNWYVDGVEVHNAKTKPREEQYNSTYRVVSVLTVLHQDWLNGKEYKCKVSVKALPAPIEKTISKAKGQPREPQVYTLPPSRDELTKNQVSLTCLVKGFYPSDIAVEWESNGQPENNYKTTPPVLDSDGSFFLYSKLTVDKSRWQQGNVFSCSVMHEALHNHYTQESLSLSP
light: B1 light
notes: also called Ho Ab N325_03V
B25: GpH7-B3 variant P238_19Q/GpL16-k0 (antibody, human IgG1, kappa)
heavy: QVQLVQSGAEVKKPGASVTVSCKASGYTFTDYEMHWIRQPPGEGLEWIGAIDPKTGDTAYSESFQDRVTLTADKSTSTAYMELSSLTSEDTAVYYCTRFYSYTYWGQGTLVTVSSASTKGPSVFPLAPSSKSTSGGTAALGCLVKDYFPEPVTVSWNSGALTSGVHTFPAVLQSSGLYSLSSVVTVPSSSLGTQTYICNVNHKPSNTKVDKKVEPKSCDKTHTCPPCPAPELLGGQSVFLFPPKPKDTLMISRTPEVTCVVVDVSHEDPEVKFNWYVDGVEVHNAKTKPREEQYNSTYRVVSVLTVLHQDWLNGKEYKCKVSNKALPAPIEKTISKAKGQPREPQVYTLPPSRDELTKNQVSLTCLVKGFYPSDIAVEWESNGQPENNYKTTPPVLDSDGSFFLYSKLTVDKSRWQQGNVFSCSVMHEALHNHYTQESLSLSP
light: B1 light
notes: also called Ho Ab P238_19Q
B26: GpH7-B3 variant P331_03V/GpL16-k0 (antibody, human IgG1, kappa)
heavy: not shown
light: B1 light
notes: also called Ho Ab P331_03V

In this test the target is T1, FcγRIIb extracellular domain with …. Kind of test: SPR (Biacore), relative binding. The protocol:
Analysis of interaction between objective antibody and the FcγR was carried out using Biacore T100 (GE Healthcare). HBS-EP+ (GE Healthcare) was used as the running buffer, and the measurement temperature was set to 25° C. Chips produced by immobilizing the antigen peptide by the amine coupling method to a Series S Sencor Chip CM5 (GE Healthcare), or alternatively, chips produced by allowing preliminarily biotinylated antigen peptides to interact with and immobilize onto a Series S Sensor Chip SA (certified) (GE Healthcare) were used. Antibodies of interest were captured onto an antigen peptide-immobilized chip, and allowed to interact to each FcγR diluted with running buffer. To regenerate and repeatedly use the chip, the antibodies captured on the chip were washed off by reacting 10 mM glycine-HCl, pH 1.5.
Background: In SPR one partner is held on a chip, and binding of the other changes the refractive index at the surface.
For B1, the Ho/Con_2b was 127 % of HoCon Ab GpH7-B3/GpL16-k0.

Regarding B2, the Ho/Con_2b is 88.2 % of HoCon Ab GpH7-B3/GpL16-k0.

As for B3, the Ho/Con_2b was 78.7 % of HoCon Ab GpH7-B3/GpL16-k0.

For the molecule B4, the Ho/Con_2b was 80.6 % of HoCon Ab GpH7-B3/GpL16-k0.

In the case of B5, the Ho/Con_2b was 96.6 % of HoCon Ab GpH7-B3/GpL16-k0.

Regarding B6, the Ho/Con_2b is 65.7 % of HoCon Ab GpH7-B3/GpL16-k0.

With B7, the Ho/Con_2b was 103 % of HoCon Ab GpH7-B3/GpL16-k0.

Turning to B8, the Ho/Con_2b was 209 % of HoCon Ab GpH7-B3/GpL16-k0.

As for B9, the Ho/Con_2b is 109 % of HoCon Ab GpH7-B3/GpL16-k0.

With B10, the Ho/Con_2b is 63.3 % of HoCon Ab GpH7-B3/GpL16-k0.

For the molecule B11, the Ho/Con_2b was 159 % of HoCon Ab GpH7-B3/GpL16-k0.

Consider B12, for which the Ho/Con_2b was 132 % of HoCon Ab GpH7-B3/GpL16-k0.

Turning to B13, the Ho/Con_2b was 71.5 % of HoCon Ab GpH7-B3/GpL16-k0.

Consider B14, for which the Ho/Con_2b is 18.8 % of HoCon Ab GpH7-B3/GpL16-k0.

As for B15, the Ho/Con_2b was 111 % of HoCon Ab GpH7-B3/GpL16-k0.

Consider B16, for which the Ho/Con_2b was 63.9 % of HoCon Ab GpH7-B3/GpL16-k0.

Regarding B17, the Ho/Con_2b is 68.5 % of HoCon Ab GpH7-B3/GpL16-k0.

For B18, the Ho/Con_2b is 166 % of HoCon Ab GpH7-B3/GpL16-k0.

As for B19, the Ho/Con_2b is 170 % of HoCon Ab GpH7-B3/GpL16-k0.

For B20, the Ho/Con_2b is 81.8 % of HoCon Ab GpH7-B3/GpL16-k0.

As to B21, the Ho/Con_2b is 111 % of HoCon Ab GpH7-B3/GpL16-k0.

In the case of B22, the Ho/Con_2b is 100 % of HoCon Ab GpH7-B3/GpL16-k0.

As to B23, the Ho/Con_2b was 5.3 % of HoCon Ab GpH7-B3/GpL16-k0.

As for B24, the Ho/Con_2b was 31.8 % of HoCon Ab GpH7-B3/GpL16-k0.

Take B25: the Ho/Con_2b was 42.7 % of HoCon Ab GpH7-B3/GpL16-k0.

On to B26, for which the Ho/Con_2b is 86.6 % of HoCon Ab GpH7-B3/GpL16-k0.

For the origin of these results see patent publication US20150344570A1 (published 2015).
